According to US20240252641A1 (TCR2 THERAPEUTICS, published 2024):

T1: CD70 on cells (CHO-CD70, JVM-3, U266, Raji, THP-1, T cells) (human, UniProt P32970 1-193)
T1 construct: whole, on cells; also called cell-surface CD70
T1 sequence (looked up): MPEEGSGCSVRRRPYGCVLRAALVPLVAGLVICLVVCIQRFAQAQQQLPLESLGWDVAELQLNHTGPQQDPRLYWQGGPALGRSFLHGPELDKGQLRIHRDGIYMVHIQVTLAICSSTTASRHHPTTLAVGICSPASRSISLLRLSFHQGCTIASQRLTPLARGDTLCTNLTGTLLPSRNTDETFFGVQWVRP

T2: CD70 (UniProt P32970 39-193, limits assumed)
T2 construct: also called CD70 (100 nM)
T2 sequence (looked up): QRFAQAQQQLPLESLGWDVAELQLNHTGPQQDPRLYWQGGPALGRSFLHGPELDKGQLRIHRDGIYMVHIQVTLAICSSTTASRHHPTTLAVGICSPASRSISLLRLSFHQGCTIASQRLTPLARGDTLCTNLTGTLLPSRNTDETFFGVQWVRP

T3: human CD27 fused to human Fc domain (human, UniProt P26842 21-192, limits assumed)
T3 construct: bought reagent; also called CD27-Fc; CD27Fc
T3 sequence (looked up): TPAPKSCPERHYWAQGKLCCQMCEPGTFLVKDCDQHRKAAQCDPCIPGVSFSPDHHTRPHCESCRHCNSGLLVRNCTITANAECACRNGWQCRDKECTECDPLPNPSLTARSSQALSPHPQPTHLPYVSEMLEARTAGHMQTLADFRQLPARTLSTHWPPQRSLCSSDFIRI

B1: human CD70, recombinant, N-terminally biotinylated (residues 39-193) (ligand, UniProt P32970 39-193, looked up)
chain: QRFAQAQQQLPLESLGWDVAELQLNHTGPQQDPRLYWQGGPALGRSFLHGPELDKGQLRIHRDGIYMVHIQVTLAICSSTTASRHHPTTLAVGICSPASRSISLLRLSFHQGCTIASQRLTPLARGDTLCTNLTGTLLPSRNTDETFFGVQWVRP
modifications: N-terminal biotin
notes: range 39-193; the same entry is used there; also called biotinylated human CD70; CD70 biotin

Legend:
[1] = biological target: T1, CD70 on cells (CHO-CD70, JVM-3, U266, …); test: binding to CD70-expressing CHO cells with and without CD27-Fc
Summary of the method: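 Anti-CD70 antibodies and CD27-Fc were applied to CHO cells with CD70 attached to the cell surface, in four set-ups. Each was applied alone; antibody was premixed with CD27-Fc; or cells were first coated with CD27-Fc or with antibody, washed, and then given the mixture. The binding signal was then measured in each set-up.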

[2] = biological target: B1; test: BLI, biotinylated CD70 on streptavidin sensors, 400 nM analyte
Experimental: (§1) Bio-layer interferometry was used to measure the binding affinity of CD70 to CD70-targeted antibodies 41D12, R3P3H12, R3P5A1, R3aP3E8, and R3aP9D10, and human CD27 fused to human Fc domain (CD27-Fc; Acro Biosystems cat. CD7-h5254). […] Following CD70 immobilization, biosensors were immersed in Octet Buffer to remove unbound, biotinylated CD70 and to establish a flat baseline sensor signal. CD70-loaded Biosensors were then transferred to Octet buffer containing 400 nM of CD27-Fc or αCD70 antibody and association was monitored for 5 minutes at 30° C. whilst agitating at 1,000 RPM. An scFv fragment derived from humanized llama αCD70 antibody 41D12 and fused to human Fc (41D12-Fc) served as a positive control for CD70 binding and an αLysozyme single-domain camelid antibody (clone D2-L19) was used as a negative control. CD27-Fc or αCD70 antibody dissociation was initiated by transferring sensors to Octet buffer and monitored for 5 minutes. Data were analyzed using ForteBio Data Analysis Suite 9.0. The observed association (kₒₙ) and dissociation (koff) rates for the binding of single-domain antibodies to CD70 were determined using a 1:1 curve fitting model to obtain, in all cases, R²≥0.95. Values of the equilibrium dissociation constant for binding to CD70, KD, were determined from the ratio of koff and kₒₙ.

CD70 [3] = biological target: T2, CD70; test: Octet (BLI); hybridoma mAb, CD70 at 100 nM
CD70 [4] = biological target: T2, CD70; test: Octet (BLI); mAb binding to CD70 with CD27 (competitor CD27)
[5] = biological target: T1, CD70 on cells (CHO-CD70, JVM-3, U266, …); test: cell ELISA, about 500 nM VHH-His, anti-His-HRP
Experimental: A cell binding ELISA was carried out to determine whether the anti-CD70 VHHs could recognize the antigen on cells. ˜500 nM each VHH-his was diluted in blocking buffer (PBS+0.01% Tween20+2% non-fat dry milk) and added to wells containing 100,000-200,000 pre-blocked CHO-CD70 cells (high CD70 expression), JVM3 cells (medium-low CD70 expression), wild type CHO cells (negative control), HL60 cells (negative control). The plate was incubated for 1 hour at room temperature with agitation. After incubation cells were washed 3 times by spinning down and dumping of the supernatant followed by addition of PBST. Subsequently, secondary antibody was applied (anti-His-HRP) and the mixture incubated for 30 minutes. After 3 more washes TMB substrate was applied to the plates and the reaction was allowed to proceed for 1-5 minutes before 1M HCl was applied as a stop solution. Immediately following application of the stop solution the absorbance at 450 nm (OD₄₅₀) of each well was measured on a spectrophotometer.

[6] = biological target: T3, human CD27 fused to human Fc domain; test: BLI, biotinylated CD70 on streptavidin sensors, 400 nM analyte
Experimental: as §1

Binder | binding result [1] | Kd (CD70 [3]) [nM] | Response (CD70 [3]) | koff (CD70 [3]) [s⁻¹] | kon (CD70 [3]) [M⁻¹ s⁻¹] | CD27:CD70 Interaction Neutralization of mAb Binding (CD70 [4]) | further results
R3aP9D10 VHH (VHH, tested as VHH-His) VHH: QVQLQESGGGLVQAGGSLRLSCAAPGFTFDAYAIGWFRQAPGKEREGVICLSPSDGSTYYADSVKGRFTISSDNAKNTVYLQMNSLKPEDTAVYYCATPSWCSLKADFGSWGQGTQVTVSS | binds | – | – | – | – | – | binding result [2]: binds
2F1 (2F1F7) (antibody, V domains shown, IgG in hybridoma supernatant; The variable domains exist only inside scFv entries 1215/1216) VH: EVQLVESGGVVVQPGGSLRLSCAASGFTFDDYTMHWVRQAPGKGLEWVSLVSWDGGSTYYADSVKGRFTTSRDNSKKFLYLQMNRLRTEDTALYFCAIDRAYRPYYYYHMDVWGKGTTVTVSS VL: not shown | – | 6.6 | 0.698 | 0.000555 | 84100 | 0.0275 | –
4G7 (4G7E8) (antibody, V domains shown, IgG in hybridoma supernatant; The variable domains exist only inside scFv entries 1213/1214) VH: QVQLVESGGGVVQPGRSLRLSCAASGFTFSSYGLHWVRQAPGKGLDWVAVIWYDGSNKYYVDSVKGRFTISRDNSMNTLFLQMNSLRAEDTAVYYCARDEAAAAGAFDIWGQGTMVTVSS VL: DIQLTQSPSFLSASVGDRVTITCRASQGISSYLAWYQQKPGKAPKLLIYAASTLQSGVPSRFSGSGSGTEFTLTISSLQPEDFATYYCQQLNYYSITFGQGTRLEIK | – | 1.28 | 0.357 | 0.000167 | 130000 | 0.0429 | –
R3P2G8 VHH (VHH, tested as VHH-His) VHH: QVQLQESGGGLVQTGGSLRLSCTASGSIFDIARGNWYRQAPGKQRELVAIITSGGATNYADSVAGRFTISRDDAKNTVYLQMNGLKPEDTAVYFCNMESLSYRHYWGQGTQVTVSS | – | – | – | – | – | – | binding result [5]: binds
R3aP4D6 VHH (VHH) VHH: QVQLQESGGGLVQAGGSLRLSCAASKSIIRDNVMAWHRQAPGKQRELVAIINTGGSANVDDSVKGRFTISRDNAKNMVYLQMNNLKPEDTAVYYCNVYYRDLWGQGTQVTVSS | binds | – | – | – | – | – | –
R3P5A1 VHH (VHH, tested as VHH-His) VHH: QVQLQESGGGLVQPGGSLRLSCTASGSIFSATRMEWYRQAPGKQRELVAIVTSGGRTNYADSVNGRFTISRDNAKNTLYLQMNNLKPEDTAVYYCKFERYDYVNYWGRGTQVTVSS | binds | – | – | – | – | – | binding result [2]: binds
R3P15F6 VHH (VHH) VHH: QVQLQESGGGLVQPGGSLRLSCVASGFTLDKYAIGWFRQAPGKELEGVSCITSSSGVVKYADSVKGRFIISRDNTNNRAFLQMSSLKPEDTAVYYCAAAGPPDDCSVPGYYGLNYWGKGTQVTVSS | binds | – | – | – | – | – | –
R2P14A12 VHH (VHH, tested as VHH-His) VHH: QVQLQESGGGLVQPGGSLRLSCVASGFTLDRYAVGWFRQAPGKELEGVSCISSSGDIIKYADSAKGRFTIARDNAKNTAYLQMNSLKPEDTAVYYCTAADPKDDCSVPGYYGLNYWGKGTQVTVSS | binds | – | – | – | – | – | –
9A1 (9A1H6) (antibody, V domains shown, IgG in hybridoma supernatant) VH: QVQLVQSGAEVKKPGASVKVSCKASGYSFTGYYMHWVRQAPGQGLEWMGWINPKSGGTSYAQQFQGRVTMTRDTSMSTVYMELTRLRADDTAVYYCARLYYSGWYGDYWGQGTLVTVSS VL: DIQMTQSPSSLSASVGDRVTITCQASQDINNYLNWYQQKPGKVPNLLIYDASNLETGVPSRFSGSGSGTDFTFTISSLQPEDIATYYCQQYNNPPITFGQGTRLEIK | – | 0.00603 | 0.434 | 5.28e-07 | 87500 | 0.0553 | –
1E3 (1E3D9) (antibody, V domains shown, IgG in hybridoma supernatant) VH: QLQLQESGPGLVKPSETLSLTCTVSGASITSTSYYWNWIRQPPGKGLEWIGRISYSGSTYYNPSLKSRVTISVDTSKNQFSLKLSSVTATDTAVYYCARQIRYNWNPDTFDIWGQGTMVTVSS VL: EIVMTQSPATLSVSPGERATLSCRASQSLNSNLAWYQQKPAQAPRLLIYGASTRATGIPARFSGSGSGTEFTLTISSLQSEDFAVYYCQQYDNWPLTFGGGTKVEIK | – | 0.255 | 0.506 | 3.88e-05 | 152000 | 0.102 | –
B1 | – | – | – | – | – | – | binding result [6]: binds
R3P3H12 VHH (VHH, tested as VHH-His) VHH: QVQLQESGGGLVQTGGSLRLSCTASGSIFDIVRGSWYRQAPGNQRELVAIITSGGATNYADSVAGRFTISRDSAWKALYLQMNSLKPEDTAVYFCNMESVRYRNYWGQGTQVTVSS | binds | – | – | – | – | – | binding result [2]: binds
15F8 (15F8D8) (antibody, V domains shown, IgG in hybridoma supernatant; also called 15F8D9) VH: EVQLVESGGGVVRPGGSLRLSCAASGFTFDDYGVSWVRQAPGRGLEWVSGINWNGGSTAYADSVKGRFTISRDSAKNSLYLQMDSLRAEDTALYYCAREEGSYYVWYFDIWGRGTLVTVSS VL: DIQMTQSPSSLSASVGDRVTITCRPSQSISNYLNWYQQKPGKAPKVLIYASFILQSGVPSRFGGSGSGTDFTLTISSLQPEDFATYYCQQSYSNPFTFGPGTKVDIK | – | 0.00481 | 0.382 | 3.36e-07 | 69800 | 0.0349 | –
